Here are results for two molecules from patent US20130101549A1 (Biogen, published 2013).

Assay [1] addresses T1, human LTβR-Ig (human, UniProt P36941 31-227).
T1 construct: Expressed and purified in house; also called hLTbR-Ig; human LTBR-Ig
In words: ELISA, huLTBR-Ig coated at 0.2 ug/ml, HRP anti-Flag mAb; the number is C of the printed 4-P fit (A 0.164, B 0.898, D 1.528, R^2 0.999). (In general: ELISA stands for enzyme-linked immunosorbent assay.)

The target in assay [2] is T2, murine LTβR-Ig (mouse, UniProt P50284 31-223).
T2 construct: Expressed and purified in house; also called mLTbR; murine LTBR-Ig
T2 sequence (P50284 31-223): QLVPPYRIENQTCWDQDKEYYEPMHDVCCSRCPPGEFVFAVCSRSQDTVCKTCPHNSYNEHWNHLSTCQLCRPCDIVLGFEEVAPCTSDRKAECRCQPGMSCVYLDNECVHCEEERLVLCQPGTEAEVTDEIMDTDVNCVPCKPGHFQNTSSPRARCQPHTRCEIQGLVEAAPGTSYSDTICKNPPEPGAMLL
The assay is described as follows: ELISA, muLTBR-Ig coated at 0.2 ug/ml, HRP anti-Flag mAb; the number is C of the printed 4-P fit (A 0.044, B 0.606, D 1.329, R^2 0.999); the points end at OD about 1.1 at 10000 ng/ml, upper plateau not reached. How it is done:
(§1) Human and murine ErbB2-Fc were obtained from R&D Systems. Wells of 96-well plates were coated with 2 ug/ml or 0.2 ug/ml of human or murine HER2-Fc by incubation overnight at 4-8° C. with either of these six proteins (80 ul/well of a 0.2 or 2 ug/ml solution in PBS). Wells were emptied, filled completely with a solution of PBS with 1% BSA (blocking buffer) and incubated at room temperature for 1 hour. Wells were emptied, washed twice PBS containing 0.05% Tween 20 (PBST) and filled with the samples (80 ul/well of 3× dilution series of the standard and supernatants in blocking buffer) prepared in another 96-well plate. […] After 1-hour incubation, the wells were emptied and filled with a solution of HRP substrate prepared freshly. The color was left to develop for 3 minutes and was stopped by addition of an equal volume of 1N H₂SO₄. Absorbance was measured at 450 nm using a Plate Reader (SpectraMax, Molecular Devices). The data was processed and graphs were created using SoftMax Pro software.
(§2) Human and murine LTBR-Ig were expressed and purified in house.

The target in assay [3] is T1, human LTβR-Ig. The assay is described as follows: ELISA, huLTBR-Ig coated at 2 ug/ml, HRP anti-Flag mAb; the number is C of the printed 4-P fit y=(A-D)/(1+(x/C)^B)+D (A 0.103, B 0.763, D 1.654, R^2 0.999).
Assay [4] has as its target T3, human HVEM-Ig (human, UniProt Q92956 39-202).
T3 construct: Expressed and purified in house; also called HVEM-Fc; Herpes virus entry mediator-Ig
T3 sequence (looked up): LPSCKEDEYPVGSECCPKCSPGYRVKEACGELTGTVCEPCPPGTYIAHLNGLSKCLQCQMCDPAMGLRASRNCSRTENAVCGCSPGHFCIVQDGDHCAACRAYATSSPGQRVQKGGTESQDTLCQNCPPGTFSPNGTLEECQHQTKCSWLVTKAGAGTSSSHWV
The assay is described as follows: ELISA, huHVEM-Ig coated at 0.2 ug/ml, HRP anti-Flag mAb; the number is C of the printed 4-P fit (A 0.22, B 1.302, D 1.232, R^2 0.998). Here is the method: as §1
Human and murine HVEM-Ig were expressed and purified in house.

The target of assay [5] is T4, murine HVEM-Ig (mouse, UniProt Q80WM9 39-210).
T4 construct: Expressed and purified in house
T4 sequence (looked up): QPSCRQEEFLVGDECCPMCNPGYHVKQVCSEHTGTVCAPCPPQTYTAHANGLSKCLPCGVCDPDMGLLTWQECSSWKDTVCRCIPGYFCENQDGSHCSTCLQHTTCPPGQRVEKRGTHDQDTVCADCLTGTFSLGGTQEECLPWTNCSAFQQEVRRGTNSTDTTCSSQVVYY
The assay is described as follows: ELISA, muHVEM-Ig coated at 2 ug/ml, HRP anti-Flag mAb; the number is C of the printed 4-P fit y=(A-D)/(1+(x/C)^B)+D (A 0.143, B 0.757, D 1.559, R^2 0.999).

Assay [6] concerns the target T3, human HVEM-Ig. The assay is described as follows: ELISA, huHVEM-Ig coated at 2 ug/ml, HRP anti-Flag mAb; the number is C of the printed 4-P fit y=(A-D)/(1+(x/C)^B)+D (A 0.117, B 0.801, D 1.551, R^2 0.998).
Assay [7] addresses T4, murine HVEM-Ig. The assay is described as follows: ELISA, muHVEM-Ig coated at 0.2 ug/ml, HRP anti-Flag mAb; the number is C of the printed 4-P fit (A 0.027, B 0.575, D 1.071, R^2 0.994).
Assay [8] deals with T2, murine LTβR-Ig. In words: ELISA, muLTBR-Ig coated at 2 ug/ml, HRP anti-Flag mAb; the number is C of the printed 4-P fit y=(A-D)/(1+(x/C)^B)+D (A 0.125, B 0.915, D 1.615, R^2 0.999). How it is done:
as §1, §2

Assay [9] addresses T1, human LTβR-Ig. The assay is described as follows: ELISA on LTbR-Ig, dilutions of medium of transfected CHO cells.

T1 sequence (P36941 31-227): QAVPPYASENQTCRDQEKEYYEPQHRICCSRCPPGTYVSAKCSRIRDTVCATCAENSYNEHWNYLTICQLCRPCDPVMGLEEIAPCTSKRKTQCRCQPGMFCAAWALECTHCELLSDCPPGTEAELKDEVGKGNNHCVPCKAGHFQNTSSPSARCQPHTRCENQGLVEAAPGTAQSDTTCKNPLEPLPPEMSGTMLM

B1: huLight (ligand, human, UniProt O43557 66-240, looked up)
ligand chain: GEMVTRLPDGPAGSWEQLIQERRSHEVNPAAHLTGANSSLTGSGGPLLWETQLGLAFLRGLSYHDGALVVTKAGYYYIYSKVQLGGVGCPLGLASTITHGLYKRTPRYPEELELLVSQQSPCGRATSSSRVWWDSSFLGGVVHLEAGEKVVVRVLDERLVRLRDGTRSYFGAFMV
notes: soluble, Flag-tagged; also called Flag-huLIGHT (control)
For the molecule B1, the EC50 was 1.33 ng/mL with human LTβR-Ig [1]; 810 ng/mL with murine LTβR-Ig [2]; 2.1 ng/mL with human LTβR-Ig [3]; 1.27 ng/mL with human HVEM-Ig [4]; 1.34 ng/mL in the assay with murine HVEM-Ig [5]; 1.3 ng/mL with human HVEM-Ig [6]. Besides, the 50% effective concentration (EC50) with murine HVEM-Ig [7] turned out to be 18.6 ng/mL; with murine LTβR-Ig [8], 2.39 ng/mL.

B2: anti-IGFR C06 Fab-hLIGHT fusion protein (C06-hLIGHT) (other)
heavy: EVQLLESGGGLVQPGGSLRLSCAASGFTFSIYRMQWVRQAPGKGLEWVSGISPSGGTTWYADSVKGRFTISRDNSKNTLYLQMNSLRAEDTAVYYCARWSGGSGYAFDIWGQGTMVTVSSASTKGPSVFPLAPSSKSTSGGTAALGCLVKDYFPEPVTVSWNSGALTSGVHTFPAVLQSSGLYSLSSVVTVPSSSLGTQTYICNVNHKPSNTKVDKKVEPKSCDKGGGGSGGGGSGGGGSGGGGSNPAAHLTGANSSLTGSGGPLLWETQLGLAFLRGLSYHDGALVVTKAGYYYIYSKVQLGGVGCPLGLASTITHGLYKRTPRYPEELELLVSQQSPCGRATSSSRVWWDSSFLGGVVHLEAGEEVVVRVLDERLVRLRDGTRSYFGAFMV
light: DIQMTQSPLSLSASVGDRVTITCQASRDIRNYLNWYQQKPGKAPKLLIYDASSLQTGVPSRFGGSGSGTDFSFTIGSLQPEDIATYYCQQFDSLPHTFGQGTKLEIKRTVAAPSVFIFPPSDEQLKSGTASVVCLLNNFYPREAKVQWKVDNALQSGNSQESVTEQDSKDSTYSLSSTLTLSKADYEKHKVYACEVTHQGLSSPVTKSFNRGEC
notes: Tested as culture medium of transiently transfected CHO cells; not measured for this fusion; also called pBIIBC06-256
Take B2: the binding result with human LTβR-Ig [9] is given as “binds”.

For orientation: EC50 means the concentration needed to bring the measured effect to its halfway point.
